Results as given in patent US20240132599A1 (GAMMADELTA THERAPEUTICS, published 2024).
Changes are numbered by the printed parent chain. Read-outs that look alike come from different tables or passages of the source.

Experiments:
[1] = molecular target: T1, L1 (DV1-GV4), recombinant soluble human Vδ1/Vγ4 γδ TCR heterodimer (human); test: SPR
T1 construct: Biotinylated in the DELFIA ranking assay; also called human TRDV1; human Vδ1 antigen

[2] = molecular target: T1, L1 (DV1-GV4), recombinant soluble human …; test: SPR; remark: listed apart in the source
[3] = molecular target: T2, Vδ1 TCR on human Vδ1-positive γδ T cells (human, UniProt A0A1B0GX56 22-115); test: flow cytometry binding to γδ T cells, Donor 1 (ATS006); column head printed IC50 (nM), the text calls it EC50 of binding; same value in the table of FIG. 11C
T2 construct: also called Vδ1 γδ T-cells; cell surface Vδ1 TCR
Description: (§1) (FIGS. 11A-11B) The level of binding by the V61 mAbs to two γδ T cell donors, ATS006 (FIG. 11A) and TS164 (FIG. 11B). γδ T cells were stained with varying concentrations of Vδ1 mAbs, followed by a fluorescent anti-human IgG detection antibody (xxx). All incubation steps were performed at 4° C. and mAb binding was determined using flow cytometry to measure the median level of fluorescence. Logarithmic four parameter dose-response curves were fitted using GraphPad Prism 9.
(§2) A range of target cells were assayed to determine the specificity and affinity of Vδ1 mAb binding. This included expanded skin-derived Vδ1 γδ T-cells, HEK293T cells, Raji cells, and multiple leukocyte subsets within human primary blood mononuclear cells. Adherent or semi-adherent cells (skin-derived Vδ1 γδ T-cells, HEK293T) were detached from tissue culture flask and resuspended in PBS. Similarly, non-adherent cell types (Raji, PBMC), were harvested and resuspended in PBS. Cells were seeded at a final density of 100,000 cells per well in v-bottom 96-well plates. Cells underwent centrifugation and the cell pellets were resuspended in FcR blocking reagent according to the manufacturer's instructions, and incubated for 20 minutes at 4C prior to a further wash. […] To determine the quantity of mAb bound to the cell surface, the cells were then stained with a murine anti-human IgG secondary antibody, conjugated to APC (product code . . . , dilution: 1:100). For Vδ1 γδ T-cells, HEK293T and Raji, the cells were also stained solely with a viability dye.

[4] = molecular target: T2, Vδ1 TCR on human Vδ1-positive γδ T cells; test: flow cytometry binding to γδ T cells, Donor 2 (TS164); column head printed IC50 (nM), the text calls it EC50 of binding; same value in the table of FIG. 11C
Description: as §1, §2

[5] = molecular target: T1, L1 (DV1-GV4), recombinant soluble human …; test: SPR (Reichert 4SPR), antibody on Protein A chip, human Vδ1 antigen as analyte, 1:1 fit, mean of two replicates (Avg KD)
Excerpt: The binding affinity of the antibodies to target (i.e. the Vδ1 chain of a γ TCR) is established by SPR analysis using a Reichert 4SPR instrument (Reichert Technologies).
The binding interaction of Vδ1 and the affinity-matured mAbs were modelled according to Langmuir 1:1 binding.

[6] = molecular target: T1, L1 (DV1-GV4), recombinant soluble human …; test: SPR; remark: listed apart in the source
[7] = molecular target: T3, human EGFR, recombinant protein (human, UniProt P00533 25-645); test: SPR (Reichert 4SPR): antibody captured on a Protein A chip, human EGFR flowed at 100 nM
T3 construct: Bought protein; also called human EGFR antigen

[8] = molecular target: T4, cyno antigen DV1/GV77, recombinant cynomolgus Vδ1 γδ TCR heterodimer (cynomolgus monkey); test: SPR
T4 construct: also called cyno TRDV1; Cyno DV1-77; not shown: Delta-chain CDR3/J and constant part, the GV77 gamma chain, and any tags

[9] = molecular target: T4, cyno antigen DV1/GV77, recombinant …; test: DELFIA ELISA, cyno antigen, heat map; all column labels read ADT1-4-110, clone assigned by the HC/LC CDR3 pair as in FIG. 4A and FIGS. 22-23
EGFR on A431 cells [10] = molecular target: T5, EGFR on A431 cells (human, UniProt P00533 25-1210); test: flow cytometry on A431 cells, 4 C, anti-human IgG-APC secondary, median fluorescence
T5 construct: whole, on cells; also called EGFR-positive A431; EGFR+A431 target cells
Description: (§3) Target cells were stained with varying concentrations of antibody, followed by a fluorescent anti-human IgG detection antibody. All incubation steps were performed at 4° C. and mAb binding was determined using flow cytometry to measure the median level of fluorescence. Logarithmic four parameter dose-response curves were fitted using GraphPad Prism 9.
(§4) Target cells were detached from tissue culture flask, resuspended in PBS and seeded at a final density of 100,000 cells per well in v-bottom 96-well plates. Cells underwent centrifugation and the cell pellets were resuspended in FcR blocking reagent according to the manufacturer's instructions, and incubated for 20 minutes at 4C prior to a further wash. Antibodies were diluted to 500 nM in PBS and serially diluted 1:10 in PBS to 50 μM, and added to the cells, followed by a 20-minute incubation at 4C. To determine the quantity of mAb bound to the cell surface, the cells were then stained with a murine anti-human IgG secondary antibody, conjugated to APC (dilution: 1:100) in addition to a viability dye. Following 20-minute incubation at 4C, the cells were washed twice, and fluorescence measured using the MACSQuant.

[11] = molecular target: T3, human EGFR, recombinant protein; test: SPR (Reichert 4SPR): antibody captured on a Protein A chip, human EGFR flowed at 100 nM; remark: listed apart in the source
[12] = molecular target: Vδ1 TCR on cynomolgus γδ T cells (cynomolgus monkey); test: cell-based or functional assay
[13] = molecular target: T2, Vδ1 TCR on human Vδ1-positive γδ T cells; test: flow cytometry on primary Vδ1 γδ T cells, 4 C, anti-human IgG-APC secondary, median fluorescence
Description: as §3, §4

[14] = molecular target: T3, human EGFR, recombinant protein; test: method not stated for this control
EGFR on HT-29 cells = molecular target: T6, EGFR on HT-29 cells (human, UniProt P00533); test: flow cytometry on HT-29 cells, 20 min at 4 C, anti-human IgG secondary
T6 construct: full length, cell surface; also called EGFR+ colon cancer cell line HT-29; HT-29 tumour cell
Description: After washing, cells were incubated for a further 20 minutes with anti-human IgG secondary antibodies (Jackson Immunoresearch) and live/dead stain (eFluor 780, Invitrogen) before washing and fixing using CellFix. The amount of antibody bound to each cell type was determined using flow cytometry (MACSQuant Analyser 10, Miltenyi Biotech).

[15] = molecular target: T2, Vδ1 TCR on human Vδ1-positive γδ T cells; test: flow cytometry on skin-derived Vδ1+ cells, 20 min at 4 C, anti-human Fc secondary
Description: Cells were washed and stained with an anti-human Fc secondary antibody (Jackson Immunoresearch) and a viability dye for dead cells (eFlour 780, Invitrogen) for 20 minutes at 4° C. The cells were washed in FACS buffer and resuspended in Cell Fix (BD sciences) before analysis on a MACSQuant Analyser 10 flow cytometer (Miltenyi).

[16] = molecular target: T3, human EGFR, recombinant protein; test: SPR
EGFR on A431 cells [17] = molecular target: T5, EGFR on A431 cells; test: EGF blockade by flow cytometry: A431 cells pre-incubated with antibody 30 min at 4 C, then EGF-AF647; EGF binding MFI
Description: Cells were then incubated for 1 hour at 4 degrees C., washed and stained with Live/dead dye (eFluor 520, Fisher) and incubated for a further 20 min at 4 degrees. The cells were washed in FACS buffer and resuspended in Cell Fix (BD sciences) before incubating overnight at 4° C. in the dark.

[18] = molecular target: T1, L1 (DV1-GV4), recombinant soluble human …; test: SPR (Reichert 4SPR): antibody on a Protein A chip, human Vδ1 antigen flowed; column 'Affinity to Vδ1 (nM)'
Description: Human Vδ1 antigen was flown over the cell at a 1:3 dilution series with top concentrations of 50 nM with the following parameters: 180s association, 900s dissociation, flow rate 25 μL/min, running buffer PBS+0.05% Tween-20. The chip surface was regenerated using 20 mM phosphoric acid following each injection. All experiments were performed at room temperature. Steady state fitting was determined according to Langmuir 1:1 binding using TraceDrawer software (Reichert Technologies.

[19] = molecular target: T3, human EGFR, recombinant protein

T2 sequence (A0A1B0GX56 22-115 limits assumed, stated change not applied): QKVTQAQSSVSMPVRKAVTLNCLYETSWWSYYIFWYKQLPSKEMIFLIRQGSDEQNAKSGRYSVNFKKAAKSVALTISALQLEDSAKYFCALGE
T1 sequence (main, as listed by the source): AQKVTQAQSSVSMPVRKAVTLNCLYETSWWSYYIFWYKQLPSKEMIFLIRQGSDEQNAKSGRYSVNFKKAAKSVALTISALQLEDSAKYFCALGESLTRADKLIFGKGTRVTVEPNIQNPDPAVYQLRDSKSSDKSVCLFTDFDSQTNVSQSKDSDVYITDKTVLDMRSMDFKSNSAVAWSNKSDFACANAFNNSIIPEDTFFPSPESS
Sequence of Vδ1 TCR on cynomolgus γδ T cells (cynomolgus monkey) (chain, as listed by the source): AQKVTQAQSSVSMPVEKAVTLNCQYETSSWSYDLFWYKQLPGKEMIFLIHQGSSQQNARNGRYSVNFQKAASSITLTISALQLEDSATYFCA
T4 sequence (delta, as listed by the source limits assumed): as the sequence (chain, as listed by the source) above

B1: ADT1-4-1 (antibody, IgG1, V domains shown)
VH: EVQLQQSGPGLVKPSQTLSLTCAISGDSVSSKSAAWNWIRQSPSRGLEWLGRTYYRSKWSTDYAASVKSRITINPDTSKNQLSLQLNSVTPEDTAVYYCARTWVGYADVWGQGTLVTVSS
VL: DIQMTQSPPALSASVGDRVTITCRASQDINDWLAWYQHKPGKAPKLLIYDASSLESGVPLRFSGSGSGTEFTLTISSLQPDDFATYYCQQRYSTPIVTFGQGTRLEIK
notes: IgG1
Which Kd [1] does the source give for B1 here?
Its Kd is 0.08 nM.

What about the Kd [2] of the same binder?
Its Kd is 0.08 nM.

B2: ADT1-4 (parental) (antibody, IgG1, V domains shown)
VH: B1 VH with E1Q, V104S, A107V
VL: B1 VL with L60S, R91S, I96Q
notes: IgG1; also called G04; 1245_P02_G04
With B2 as the binder, how does the EC50 [3] read?
Its EC50 is 108 nM.

And the EC50 [4]?
The EC50 was 576 nM.

What about the Kd [5] of the same binder?
The Kd was 149 nM.

And the Kd [6]?
The Kd was 115 nM.

Does B2 bind [7]?
Result: no binding (tested: 100 nM)

B3: ADT1-4-8 (antibody, IgG1, V domains shown)
VH: B1 VH with T102S, A107V
VL: B1 VL with R91K, T94A, I96Q
notes: IgG1
B3 was tested. Which Kd [8] did it give?
The Kd was 15.1 nM.

What about the Kd [1] of the same binder?
Its Kd is 0.541 nM.

B4: ADT1-4-139 (antibody, IgG1, V domains shown)
VH: B1 VH with A107V, V109Y
VL: B1 VL with R91G, I96Q, V97L
notes: IgG1
With B4 as the binder, how does the “Heat Map (Cyno) value (ELISA signal)” value [9] read?
Its value is 57600.

B5: ADT1-4-2 (antibody, IgG1, V domains shown)
VH: B1 VH with A107V, V109R
VL: B1 VL with R91K, T94A, I96Q
notes: IgG1
Does B5 bind (EGFR on A431 cells [10])?
Result: no binding (tested: 500 nM)

What about the Kd [6] of the same binder?
The Kd was 0.522 nM.

Does B5 bind [11]?
Result: no binding (tested: 100 nM)

And the “EC50 (read off the curve), TCR downregulation, donor AD8170” value [12]?
Its value is 4 to 5 nM.

What about the “EC50 (read off the curve), TCR downregulation, donor AM945BA” value [12] of the same binder?
Its value is about 2 nM.

B6: D1.3xFS1-67 control (bispecific antibody, V domains shown)
VH: QVQLQESGPGLVRPSQTLSLTCTVSGSTFSGYGVNWVRQPPGRGLEWIGMIWGDGNTDYNSALKSRVTMLVDTSKNQFSLRLSSVTAADTAVYYCARERDYRLDYWGQGSLVTVSS
VL: DIQMTQSPSSLSASVGDRVTITCRASGNIHNYLAWYQQKPGKAPKLLIYYTTTLADGVPSRFSGSGSGTDYTFTISSLQPEDIATYYCQHFWSTPRTFGQGTKVEIKR
notes: Only one entry is named for the whole molecule; it may hold heavy and light chains together; also called D1.3 FS1-67
B6 was tested. Which “EC50 (read off the curve)” value (EGFR on A431 cells [10]) did it give?
Its value is about 8 nM.

Does B6 bind [13]?
Result: no binding (tested: 500 nM)

What about the Kd [14] of the same binder?
Its Kd is 1 nM.

What about the EC50 (EGFR on HT-29 cells) of the same binder?
The EC50 was 0.281 nM.

What about the “MFI (at saturation)” value [15] of the same binder?
Its value is about 0.495 MFI.

B7: ADT1-4-2/ADT3-2 (bispecific antibody)
heavy: EVQLQQSGPGLVKPSQTLSLTCAISGDSVSSKSAAWNWIRQSPSRGLEWLGRTYYRSKWSTDYAASVKSRITINPDTSKNQLSLQLNSVTPEDTAVYYCARTWVGYVDRWGQGTLVTVSSASTKGPSVFPLAPSSKSTSGGTAALGCLVKDYFPEPVTVSWNSGALTSGVHTFPAVLQSSGLYSLSSVVTVPSSSLGTQTYICNVNHKPSNTKVDKKVEPKSCDKTHTCPPCPAPELAGAPSVFLFPPKPKDTLMISRTPEVTCVVVDVSHEDPEVKFNWYVDGVEVHNAKTKPREEQYNSTYRVVSVLTVLHQDWLNGKEYKCKVSNKALPAPIEKTISKAKGQPREPQVYTLPPSRDELEEGPVSLTCLVKGFYPSDIAVEWESTYGPENNYKTTPPVLDSDGSFFLYSKLTVSYWRWYKGNVFSCSVMHEALHNHYTQKSLSLSPG
light: DIQMTQSPPALSASVGDRVTITCRASQDINDWLAWYQHKPGKAPKLLIYDASSLESGVPLRFSGSGSGTEFTLTISSLQPDDFATYYCQQKYSAPQVTFGQGTRLEIKRTVAAPSVFIFPPSDEQLKSGTASVVCLLNNFYPREAKVQWKVDNALQSGNSQESVTEQDSKDSTYSLSSTLTLSKADYEKHKVYACEVTHQGLSSPVTKSFNRGEC
notes: mAb2; also called ADT1-4-2 × LEE; ADT1-4-2xLEE
What does the source list for B7?
EC50 (read off the curve) [13]: ~0.8 nM; Kd [16]: 1.49 nM; EC50 (EGFR on A431 cells [17]): 2.92 nM; EC50 (EGFR on HT-29 cells): 0.537 nM; Kd [18]: 0.24 nM; EC50 [15]: 0.276 nM; EC95 [15]: 2.7 nM

B8: ADT1-4-2/ADT3-5 (bispecific antibody)
heavy: B7 heavy with E362T, E363K, G364N, P365Q
light: B7 light
notes: mAb2; also called ADT1-4-2xLEE1
What does the source list for B8?
Kd [19]: 140 nM; Kd [16]: 142 nM; Kd [6]: 0.883 nM

B9: ADT1-4-2/ADT3-7 (bispecific antibody)
heavy: B7 heavy with Y421Q, K422Q
light: B7 light
notes: mAb2; also called ADT1-4-2xLEE3
For B9, which Kd [16] is on record?
Its Kd is 8.63 nM.

What about the Kd [6] of the same binder?
The Kd was 0.462 nM.

And the EC50 (EGFR on A431 cells [17])?
Its EC50 is 8.66 nM.
